Results taken from PMC10450178.

What was measured:
Test in all cases: BLI
[1] = test system: Gmab anti-G4 antibody fragment (human (Garvan-2 scFv library)); conditions: Buffer R: 20 mM HEPES pH 7.4-7.5, 20 mM NaOAc, 140 mM KOAc, 3 mM Mg(OAc)2, 0.1% Tween20, SPR at 20 C, BLI temperature not …
BG4 anti-G4 antibody = conditions: Buffer R: 20 mM HEPES pH 7.4-7.5, 20 mM NaOAc, 140 mM KOAc, 3 mM Mg(OAc)2, 0.1% Tween20, SPR at 20 C, BLI temperature not …
[2] = molecular target: hen egg-white lysozyme (HEL) (Gallus gallus) (UniProt P00698); conditions: Buffer R: 20 mM HEPES pH 7.5, 20 mM NaOAc, 140 mM KOAc, 3 mM Mg(OAc)2, 0.1% Tween20, BLI temperature not stated, low values mean tight binding
Chain of hen egg-white lysozyme (HEL) (Gallus gallus) (P00698 19-147): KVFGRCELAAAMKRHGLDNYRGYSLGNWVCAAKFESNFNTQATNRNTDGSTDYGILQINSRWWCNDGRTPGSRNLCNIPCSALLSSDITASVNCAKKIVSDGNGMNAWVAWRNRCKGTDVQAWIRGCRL

CGGGCGGGCGCGAGGGAGGGG [KIT2 G4]
Kd ([1]; ka 7.5e4 M-1s-1, kd 2.7e-4 s-1): 3.6 nM | Kd (BG4 anti-G4 antibody; ka 7.9e4 M-1s-1, kd 1.5e-4 s-1): 1.9 nM

GTTCGTTTAAATATGTGTCGTCGTTCGCTATCC [core13 G13A]
Kd ([2]; all-HNA): 97.9 nM

GTTCGTTTAAATGTGTGTCGTCGTTCACTATCC [core13 G27A]
Kd ([2]; all-HNA): 9.28 nM

GTTCGTTTAAATGTGTGTCGTCGTTCCCTATCC [core13 G27C]
Kd ([2]; all-HNA): 116 nM

GTTCGTTTAAATGTGTGTCGTCGTTCGCTATCC [LYS-S8-19-core13 (HNA)]
Kd ([1]; ka 8.47e4, kd 1.00e-2, all-HNA): 118 nM | Kd ([2]; all-HNA): 68.8 nM

GTGCTGTTCGTTTAAATGTGTGTCGTCGTTCGCTATCC [LYS-S8-19-core14 (HNA)]
Kd ([1]; all-HNA (1',5'-anhydrohexitol)): 32.3 nM | Kd ([2]; all-HNA (1',5'-anhydrohexitol)): 48.8 nM | Kd (BG4 anti-G4 antibody; all-HNA (1',5'-anhydrohexitol)): 5.3 nM
